From patent US20190353654A1 come the findings set out here.

The target in assay [1] is CXCL12 24-88 (UniProt P48061). Nature of the assay: MicroScale Thermophoresis, labeled receptor, ligand titrated, in 50% human serum. (In general: MST reads how a fluorescent partner responds to local heating, with and without ligand.)
Assay [2] addresses CXCL12 24-88 (UniProt P48061). Nature of the assay: MicroScale Thermophoresis, labeled receptor, ligand titrated, in buffer (1x PBS, 5 mM DTT).
Assay [3] addresses CXCL12 24-88 (UniProt P48061). Nature of the assay: MicroScale Thermophoresis, later independent purification and refolding from E. coli inclusion bodies.
Assay [4] has as its target CXCL12 24-88 (UniProt P48061). Description: MicroScale Thermophoresis, earlier independent purification and refolding from E. coli inclusion bodies.
Assay [5] has as its target CCL5 26-91 (UniProt P13501). Description: MicroScale Thermophoresis, earlier independent purification from SF9 cells.
Assay [6] concerns the target CCL5 26-91 (UniProt P13501). Description: MicroScale Thermophoresis, labeled receptor, ligand titrated, in 50% human serum.
Assay [7] has as its target CCL5 26-91 (UniProt P13501). Description: MicroScale Thermophoresis, labeled receptor, ligand titrated, in buffer (1x PBS, 5 mM DTT).

CXCL12 24-88, sequence (P48061 24-88 limits assumed, form in doubt): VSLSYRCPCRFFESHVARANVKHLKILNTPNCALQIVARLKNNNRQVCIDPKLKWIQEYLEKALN
CCL5 26-91, sequence (P13501 26-91 limits assumed, form in doubt): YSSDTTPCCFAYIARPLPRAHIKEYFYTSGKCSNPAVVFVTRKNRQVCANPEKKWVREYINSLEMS

B1: CXCR7^QTY (receptor, not shown: small tags and cut ends)
chain: MDLHLFDYSEPGNFSDISWPCNSSDCIVVDTVMCPNMPNKSTQQYTQSYTYTYTYTTGMTANSVVVWVNIQAKTTGYDTHCYTQNQATADQWTTQTTPTWTTSLVQHNQWPMGELTCKTTHQTYSTNQYGSTYYQTCMSVDRYLSITYFTNTPSSRKKMVRRTTCTQTWQQAYCTSQPDTYYQKTVTSASNNETYCRSFYPEHSIKEWLIGMEQTSTTQGYATPYSTTATYYYQLARAISASSDQEKHSSRKTTYSYTTTYQTCWQPYHTATQLDIFSILHYIPFTCRLEHALFTAQHTTQCQSQTHCCTNPTQYSYTNRNYRYELMKAFIFKYSAKTGLTKLIDASRVSETEYSALEQSTK
modifications: The receptor was labelled with NT647 (RED-NHS dye on lysines, positions not defined) for MST. The letters do not carry this.
Usually Kd stands for the constant that tells how readily two partners part at equilibrium. Higher therefore signals weaker binding. With B1, the Kd is 6.6 nM in assay [1] and 2.2 nM in assay [2].

B2: CXCR4^QTY (receptor, not shown: small tags and cut ends)
chain: MEGISIYTSDNYTEEMGSGDYDSMKEPCFREENANFNKTYQPTTYSTTYQTGTTGQGQTTQTMGYQKKQRSMTDKYRQHQSTADQQYTTTQPYWATDATANWYFGNFQCKATHTTYTTQQYSSTQTQAYTSQDRYLAIVHATNSQRPRKQQAEKTTYTGTWTPAQQQTTPDYTYANVSEADDRYICDRFYPNDLWTTTYQYQHTMTGQTQPGTTTQSCYCTTTSKLSHSKGHQKRKALKTTTTQTQAYYACWQPYYTGTSTDSFILLEIIKQGCEFENTVHKWTSTTEAQAYYHCCQQPTQYAYQGAKYKTSAQHAQTSTSRGSSQKTQSKGKRGGHSSTSTESESSSFHSS
modifications: Receptor labelled with NT647 dye (RED-NHS, on amines) for MST; sites not specified
As to B2, the Kd in assay [3] was 13 nM; in assay [4], 17 nM; in assay [1], 44.7 nM; in assay [2], 11.2 nM.

B3: CCR5^QTY (receptor, not shown: small tags and cut ends)
chain: MDYQVSSPIYDINYYTSEPCQKINVKQIAARQQPPQYSQTFTYGFTGNMQTTQTQINCKRLKSMTDIYLQNQAISDQYYQQTTPYWAHYAAAQWDFGNTMCQQQTGQYFTGYYSGTYYTTQQTTDRYLAVVHAVFALKARTTTYGTTTSTTTWTTATYASQPGTTYTRSQKEGLHYTCSSHFPYSQYQFWKNFQTLKITIQGQVQPQQTMVTCYSGTQKTLLRCRNEKKRHRAVRQTFTTMTTYYQYWAPYNTTQQLNTFQEFFGLNNCSSSNRLDQAMQVTETQGMTHCCTNPTIYAYVGEKFRNYLLVFFQKHIAKRFCKCCSIFQQEAPERASSVYTRSTGEQEISVGL
modifications: Receptor labelled with NT647 dye (RED-NHS, on amines) for MST; sites not specified
Turning to B3, the Kd in assay [5] is 42 nM; in assay [6], 45.9 nM; in assay [7] it was 33.9 nM.
